Laboratory results reported in the supplement of paper PMC7877785.
± gives the uncertainty stated by the source.

Assay: self-splicing fitness, log relative to wild type (ln ratio); higher = more splicing; Tetrahymena group I intron in knt gene, E. coli kanamycin selection, DiMSum; sequences stand for … in CUCUCU…GGAGGGAAAAGUUAUCAGGCAUGCACCUGGUAGCUAGUCUUUAAACCAAUAGAUUGCAUCGGUUUAAAAGGCAAGACCGUCAAAUUGCGGGAAAGGGGUCAACAGCCGUUCAGUACCAAGUCUCAGGGGAAACUUUGAGAUGGCCUUGCAAAGGGUAUGGUAAUAAGCUGACGGACAUGGUCCUAACCACGCAGCCAAGUCCUAAGUCAACAGAUCUUCUGUUGAUAUGGAUGCAGUUCACAGACUAAAUGUCGGUCGGGGAAGAUGUAUUCUUCUCAUAAGAUAUAGUCGGACCUCUCCUUAAUGGGAGCUAGCGGAUGAAGUGAUGCAACACUGGAGCCGCUGGGAACUAAUUUGUAUGCGAAAGUAUAUUGAUUAGUUUUGGAGUACUCGUGGUCG
Procedure, shortened: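 Colonies from six replicate transformations of E. coli BL21(DE3) were pooled and amplicon-sequenced on an Illumina HiSeq 2500. The library placed an intron with all eight P1ex-region nucleotides randomised inside the knt kanamycin-resistance gene on pET-22b(+), and cells grew overnight at 37°C or 30°C on LB agar with or without 25 μg/mL kanamycin (plus 100 μg/mL carbenicillin, 50 μM IPTG, 0.2% rhamnose). Fitness is the DiMSum error-weighted combination of wild-type-normalised replicate fold changes, kanamycin versus none.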

Sequence	self-splicing fitness (ln) (30 °C)	self-splicing fitness (ln) (37 °C)
UGUGAGCAAUAUUACGCUUG	-3.29 ± 0.31	-3.13 ± 0.47
GGACAGCAAUAUUACGCCGU	-4.23 ± 0.46	-3.05 ± 0.26
CAAAAGCAAUAUUACGAACA	-1.95 ± 0.14	-0.613 ± 0.13
CUUAAGCAAUAUUACGGAUU	-3.94 ± 0.32	-3.41 ± 0.47
CCCUAGCAAUAUUACGAGGG	-4.35 ± 0.46	-2.09 ± 0.23
AGUUAGCAAUAUUACGGCAC	-1.47 ± 0.16	-1.82 ± 0.25
AGAUAGCAAUAUUACGCCAA	-2.98 ± 0.38	-3.38 ± 0.37
CUUAAGCAAUAUUACGCCUA	-1.91 ± 0.38	–
UGGGAGCAAUAUUACGACGG	-2.22 ± 0.26	-1.69 ± 0.39
GUAUAGCAAUAUUACGAACA	-2.44 ± 0.27	-1.21 ± 0.27
GCCCAGCAAUAUUACGUCGU	-0.113 ± 0.066	0.0609 ± 0.072
UGUGAGCAAUAUUACGCUGC	-1.9 ± 0.25	–
GCCCAGCAAUAUUACGCUAG	-3.11 ± 0.18	-2.34 ± 0.17
CACCAGCAAUAUUACGCGGU	-3.67 ± 0.12	-3.31 ± 0.15
CUACAGCAAUAUUACGCCAC	-3.68 ± 0.33	–
AUCCAGCAAUAUUACGAGAA	-2.6 ± 0.24	-1.22 ± 0.22
UGCAAGCAAUAUUACGCCUU	-1 ± 0.16	-0.449 ± 0.15
UCCGAGCAAUAUUACGGUUU	-3.42 ± 0.22	-1.02 ± 0.14
GGUCAGCAAUAUUACGGAGA	–	-1.69 ± 0.28
GGCAAGCAAUAUUACGGGUG	-0.914 ± 0.055	-0.195 ± 0.066
UCGGAGCAAUAUUACGAGGA	-3.64 ± 0.4	-0.618 ± 0.21
CCGCAGCAAUAUUACGACGG	-2.83 ± 0.11	-2.64 ± 0.19
UCGAAGCAAUAUUACGUCUA	0.0685 ± 0.078	0.296 ± 0.077
CUCUAGCAAUAUUACGUAGA	-3.49 ± 0.27	-1.6 ± 0.17
GAGCAGCAAUAUUACGCAUG	-3.03 ± 0.34	-1.67 ± 0.31
CCUUAGCAAUAUUACGACGU	-2.25 ± 0.18	-1.9 ± 0.23

Sequence	self-splicing fitness (ln) (30 °C)	self-splicing fitness (ln) (37 °C)
GAACAGCAAUAUUACGCAUA	-0.914 ± 0.079	-0.68 ± 0.094
CGAAAGCAAUAUUACGACGU	-0.439 ± 0.067	0.0287 ± 0.078
AGCAAGCAAUAUUACGGCGC	-0.695 ± 0.095	0.164 ± 0.16
GCUAAGCAAUAUUACGCGGU	-2.97 ± 0.27	-2.72 ± 0.25
UAGCAGCAAUAUUACGCGGU	-4.14 ± 0.22	-2.49 ± 0.17
GCAUAGCAAUAUUACGGAGA	-4.01 ± 0.37	-3.02 ± 0.33
UUUUAGCAAUAUUACGCUAG	-3.18 ± 0.34	-1.7 ± 0.35
AUCGAGCAAUAUUACGGGUA	-2.85 ± 0.16	-2.15 ± 0.14
GUGAAGCAAUAUUACGAACA	-0.242 ± 0.076	0.0414 ± 0.11
UGCCAGCAAUAUUACGUGCU	-3.14 ± 0.11	-1.48 ± 0.1
CCAGAGCAAUAUUACGCCAA	–	-3.04 ± 0.47
GGUAAGCAAUAUUACGGAUA	-3.17 ± 0.25	-1.69 ± 0.13
AACUAGCAAUAUUACGGGGU	-3.93 ± 0.3	-2.34 ± 0.18
GUCAAGCAAUAUUACGUCCU	-2.13 ± 0.11	-1.04 ± 0.11
ACCCAGCAAUAUUACGCGAG	-1.63 ± 0.078	-0.948 ± 0.1
AUUGAGCAAUAUUACGCCCA	-2.25 ± 0.25	-1.39 ± 0.39
AAUUAGCAAUAUUACGCCGA	-1.34 ± 0.26	-0.981 ± 0.21
ACGUAGCAAUAUUACGGUGC	-3.86 ± 0.4	-2.01 ± 0.22
AUUCAGCAAUAUUACGAGGU	-3.61 ± 0.17	-1.72 ± 0.14
UCGUAGCAAUAUUACGUCCC	-2.74 ± 0.3	–
CUGGAGCAAUAUUACGGCAU	-3.26 ± 0.47	–
UACAAGCAAUAUUACGUGCU	-3.34 ± 0.16	-2.22 ± 0.13
UUAUAGCAAUAUUACGUAUC	-3.79 ± 0.31	-3.04 ± 0.32
CAAUAGCAAUAUUACGGACA	-2.44 ± 0.16	-1.5 ± 0.15
GUCUAGCAAUAUUACGAGAG	-2.4 ± 0.17	-1.33 ± 0.12
UUCUAGCAAUAUUACGAUCU	-2.84 ± 0.34	-2.52 ± 0.27

Sequence	self-splicing fitness (ln) (30 °C)	self-splicing fitness (ln) (37 °C)
CGCAAGCAAUAUUACGUUAA	-2.49 ± 0.18	-2.62 ± 0.21
GGUUAGCAAUAUUACGGACG	0.908 ± 0.17	-0.388 ± 0.22
CAUCAGCAAUAUUACGCCGC	-3.14 ± 0.36	–
UUGGAGCAAUAUUACGGCUA	-1.23 ± 0.26	-1.21 ± 0.41
AGUCAGCAAUAUUACGUGGG	-4.29 ± 0.21	-2.44 ± 0.14
UGUUAGCAAUAUUACGCGGA	-0.526 ± 0.082	-0.401 ± 0.087
GAGUAGCAAUAUUACGAGCC	-1.67 ± 0.2	-1.26 ± 0.19
UAGAAGCAAUAUUACGUCUC	-1.21 ± 0.11	-0.794 ± 0.1
CUGAAGCAAUAUUACGAGUA	-3.67 ± 0.28	-2.63 ± 0.3
UGUAAGCAAUAUUACGCCGA	-1.5 ± 0.14	-1.63 ± 0.18
UCAAAGCAAUAUUACGUGCG	-1.13 ± 0.045	-0.496 ± 0.064
CGAUAGCAAUAUUACGCGCG	-2.92 ± 0.15	-1.59 ± 0.14
CUUAAGCAAUAUUACGACAU	-3.434 ± 0.023	-2.11 ± 0.036
UCCCAGCAAUAUUACGCUCG	-2.99 ± 0.18	-2.15 ± 0.29
UUACAGCAAUAUUACGACUG	-1.26 ± 0.08	-1.81 ± 0.12
ACAAAGCAAUAUUACGGCCU	-0.338 ± 0.071	0.0409 ± 0.1
ACGCAGCAAUAUUACGAUUA	-1.54 ± 0.091	-0.902 ± 0.079
AUGGAGCAAUAUUACGCGCA	-1.66 ± 0.28	-0.77 ± 0.23
AGUCAGCAAUAUUACGUUGU	-3.18 ± 0.12	-2.87 ± 0.18
CUGCAGCAAUAUUACGCUGC	-2.88 ± 0.29	–
CUGGAGCAAUAUUACGCCGA	-1.18 ± 0.34	–
GCGUAGCAAUAUUACGGACG	-3.14 ± 0.21	-2.1 ± 0.22
CAAGAGCAAUAUUACGACUC	-2.72 ± 0.24	-1.84 ± 0.27
GAGUAGCAAUAUUACGAUUC	-0.85 ± 0.18	-0.0237 ± 0.24
AAGUAGCAAUAUUACGAGGU	-1.94 ± 0.13	-1.97 ± 0.17
CUAAAGCAAUAUUACGGGUA	-4.44 ± 0.32	-2.3 ± 0.3
